B1: 6xHis-Strep-TEV-GFP-NBR1 (natural protein, human, UniProt Q14596 1-966, looked up)
chain: MEPQVTLNVTFKNEIQSFLVSDPENTTWADIEAMVKVSFDLNTIQIKYLDEENEEVSINSQGEYEEALKMAVKQGNQLQMQVHEGHHVVDEAPPPVVGAKRLAARAGKKPLAHYSSLVRVLGSDMKTPEDPAVQSFPLVPCDTDQPQDKPPDWFTSYLETFREQVVNETVEKLEQKLHEKLVLQNPSLGSCPSEVSMPTSEETLFLPENQFSWHIACNNCQRRIVGVRYQCSLCPSYNICEDCEAGPYGHDTNHVLLKLRRPVVGSSEPFCHSKYSTPRLPAALEQVRLQKQVDKNFLKAEKQRLRAEKKQRKAEVKELKKQLKLHRKIHLWNSIHGLQSPKSPLGRPESLLQSNTLMLPLQPCTSVMPMLSAAFVDENLPDGTHLQPGTKFIKHWRMKNTGNVKWSADTKLKFMWGNLTLASTEKKDVLVPCLKAGHVGVVSVEFIAPALEGTYTSHWRLSHKGQQFGPRVWCSIIVDPFPSEESPDNIEKGMISSSKTDDLTCQQEETFLLAKEERQLGEVTEQTEGTAACIPQKAKNVASERELYIPSVDLLTAQDLLSFELLDINIVQELERVPHNTPVDVTPCMSPLPHDSPLIEKPGLGQIEEENEGAGFKALPDSMVSVKRKAENIASVEEAEEDLSGTQFVCETVIRSLTLDAAPDHNPPCRQKSLQMTFALPEGPLGNEKEEIIHIAEEEAVMEEEEDEEDEEEEDELKDEVQSQSSASSEDYIIILPECFDTSRPLGDSMYSSALSQPGLERGAEGKPGVEAGQEPAEAGERLPGGENQPQEHSISDILTTSQTLETVPLIPEVVELPPSLPRSSPCVHHHGSPGVDLPVTIPEVSSVPDQIRGEPRGSSGLVNSRQKSYDHSRHHHGSSIAGGLVKGALSVAASAYKALFAGPPVTAQPIISEDQTAALMAHLFEMGFCDRQLNLRLLKKHNYNILQVVTELLQLNNNDWYSQRY
notes: NBR1, human, ORF amplified from HeLa cells cDNA; called full-length NBR1 in the results; Tag ends are read from the construct's name; a TEV site lies between Strep and GFP, cleavage is not mentioned; also called GFP-NBR1 WT; full-length NBR1; source: Sf9, purified (HisTrap, SEC on Superose 6); not shown: GFP, N-terminal, kept
B2: GST-FIP200 Claw (aa 1494-1594) (domain or fragment, UniProt Q8TDY2 1494-1594, looked up)
chain: EKIAIRDFQVGDLVLIILDERHDNYVLFTVSPTLYFLHSESLPALDLKPGEGASGASRRPWVLGKVMEKEYCQAKKAQNRFKVPLGTKFYRVKAVSWNKKV
notes: FIP200 Claw domain, aa 1494-1594; The tag's end is read from the construct's name; also called Claw domain of FIP200; source: expressed and purified as the GST-FIP200 CTR construct (previously described); not shown: GST, N-terminal, kept

What all share (assay): pull-down; microscopy-based protein-protein interaction assay: GST-tagged bait saturated on Glutathione Sepharose 4B beads, fluorescent prey at 2 µM, 25 mM HEPES pH 7.5, 150 mM NaCl, 1 mM DTT, 30 min-1 h at room temperature, beads imaged at the equilibrium by confocal microscopy
Holding throughout (conditions): both partners purified

For one test, the target named is T1, GST-FIP200 (UniProt Q8TDY2 1-1594).
T1 construct: FIP200, insect codon-optimized gene purchased from GenScript; The tag's end is read from the construct's name; In the functional rows on condensates the protein added was FIP200-GFP (GST cleaved off GST-FIP200-GFP with 3C protease); source: Sf9, purified (Glutathione Sepharose 4B, SEC on Superose 6 Increase); not shown: GST, N-terminal, kept

Test [1] has as its target T2, GST fused to four M1-linked ubiquitin moieties (GST-4xUb) (UniProt P0CG48 1-76; P0CG48 1-76; P0CG48 1-76; P0CG48 1-76).
T2 construct: ubiquitin, first of four M1-linked (head-to-tail) moieties; ubiquitin, second of four M1-linked (head-to-tail) moieties; ubiquitin, third of four M1-linked (head-to-tail) moieties; ubiquitin, fourth of four M1-linked (head-to-tail) moieties; The tag's end is read from the construct's name; not shown: GST, N-terminal, kept

For the test “6xHis-Strep-TEV-GFP-NBR1”, the target named is B1.

T2 sequence (P0CG48 1-304, one chain of several): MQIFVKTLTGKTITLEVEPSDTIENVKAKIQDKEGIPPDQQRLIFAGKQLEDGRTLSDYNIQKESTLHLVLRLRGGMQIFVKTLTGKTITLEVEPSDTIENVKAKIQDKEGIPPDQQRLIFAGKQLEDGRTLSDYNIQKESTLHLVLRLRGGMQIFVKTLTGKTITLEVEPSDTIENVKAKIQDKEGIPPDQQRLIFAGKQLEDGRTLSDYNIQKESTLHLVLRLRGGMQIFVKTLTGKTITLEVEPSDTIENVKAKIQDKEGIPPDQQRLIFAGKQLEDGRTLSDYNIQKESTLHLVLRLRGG

On to B1, for which the binding result (in the test with GST-FIP200; in test [1]) was “binds” in each case. On to B2, for which the binding result with 6xHis-Strep-TEV-GFP-NBR1 was “binds”.

Values taken from article PMC8410870, “Reconstitution defines the roles of p62, NBR1 and TAX1BP1 in ubiquitin condensate formation and autophagy initiation” (Nature Communications, 2021).
